What was measured:
[1] = target: receptor with a moderately high affinity for somatostatin on primary tumor cells of human colon adenocarcinoma (human); test: 125I-somatostatin receptor-ligand assay on cells, Scatchard (LIGAND); culture PTC-3
[2] = target: high-affinity receptor for somatostatin on primary tumor cells of human colon adenocarcinoma (human); test: as above
[3] = target: receptor with a moderately high affinity for somatostatin on primary tumor cells of human colon adenocarcinoma (human); test: 125I-somatostatin receptor-ligand assay on cells, Scatchard (LIGAND); culture PTC-4
[4] = target: high-affinity receptor for somatostatin on primary tumor cells of human colon adenocarcinoma (human); test: as above
[5] = target: receptor with a moderately high affinity for somatostatin on primary tumor cells of human colon adenocarcinoma (human); test: 125I-somatostatin receptor-ligand assay on cells, Scatchard (LIGAND); culture PTC-5
[6] = target: high-affinity receptor for somatostatin on primary tumor cells of human colon adenocarcinoma (human); test: as above
[7] = target: receptor with a moderately high affinity for somatostatin on primary tumor cells of human colon adenocarcinoma (human); test: 125I-somatostatin receptor-ligand assay on cells, Scatchard (LIGAND); culture PTC-8
[8] = target: high-affinity receptor for somatostatin on primary tumor cells of human colon adenocarcinoma (human); test: as above
[9] = target: receptor with a moderately high affinity for somatostatin on primary tumor cells of human colon adenocarcinoma (human); test: 125I-somatostatin receptor-ligand assay on cells, Scatchard (LIGAND); culture PTC-7
[10] = target: high-affinity receptor for somatostatin on primary tumor cells of human colon adenocarcinoma (human); test: as above
[11] = target: receptor with a moderately high affinity for somatostatin on primary tumor cells of human colon adenocarcinoma (human); test: 125I-somatostatin receptor-ligand assay on cells, Scatchard (LIGAND); culture PTC-6
[12] = target: high-affinity receptor for somatostatin on primary tumor cells of human colon adenocarcinoma (human); test: as above
[13] = target: receptor with a moderately high affinity for somatostatin on primary tumor cells of human colon adenocarcinoma (human); test: 125I-somatostatin receptor-ligand assay on cells, Scatchard (LIGAND); culture PTC-2
[14] = target: high-affinity receptor for somatostatin on primary tumor cells of human colon adenocarcinoma (human); test: as above
[15] = target: receptor with a moderately high affinity for somatostatin on primary tumor cells of human colon adenocarcinoma (human); test: 125I-somatostatin receptor-ligand assay on cells, Scatchard (LIGAND); culture PTC-1
[16] = target: high-affinity receptor for somatostatin on primary tumor cells of human colon adenocarcinoma (human); test: as above
[17] = target: receptor with a moderately high affinity for VIP on primary tumor cells of human colon adenocarcinoma (human); test: 125I-VIP receptor-ligand assay on cells, Scatchard (LIGAND); culture PTC-8
[18] = target: high-affinity receptor for VIP on primary tumor cells of human colon adenocarcinoma (human); test: as above
[19] = target: receptor with a moderately high affinity for VIP on primary tumor cells of human colon adenocarcinoma (human); test: 125I-VIP receptor-ligand assay on cells, Scatchard (LIGAND); culture PTC-6
[20] = target: high-affinity receptor for VIP on primary tumor cells of human colon adenocarcinoma (human); test: as above
[21] = target: receptor with a moderately high affinity for VIP on primary tumor cells of human colon adenocarcinoma (human); test: 125I-VIP receptor-ligand assay on cells, Scatchard (LIGAND); culture PTC-5
[22] = target: high-affinity receptor for VIP on primary tumor cells of human colon adenocarcinoma (human); test: as above
[23] = target: receptor with a moderately high affinity for VIP on primary tumor cells of human colon adenocarcinoma (human); test: 125I-VIP receptor-ligand assay on cells, Scatchard (LIGAND); culture PTC-1
[24] = target: high-affinity receptor for VIP on primary tumor cells of human colon adenocarcinoma (human); test: as above
[25] = target: receptor with a moderately high affinity for VIP on primary tumor cells of human colon adenocarcinoma (human); test: 125I-VIP receptor-ligand assay on cells, Scatchard (LIGAND); culture PTC-7
[26] = target: high-affinity receptor for VIP on primary tumor cells of human colon adenocarcinoma (human); test: as above
[27] = target: receptor with a moderately high affinity for VIP on primary tumor cells of human colon adenocarcinoma (human); test: 125I-VIP receptor-ligand assay on cells, Scatchard (LIGAND); culture PTC-4
[28] = target: high-affinity receptor for VIP on primary tumor cells of human colon adenocarcinoma (human); test: as above
[29] = target: receptor with a moderately high affinity for VIP on primary tumor cells of human colon adenocarcinoma (human); test: 125I-VIP receptor-ligand assay on cells, Scatchard (LIGAND); culture PTC-3
[30] = target: high-affinity receptor for VIP on primary tumor cells of human colon adenocarcinoma (human); test: as above
[31] = target: receptor with a moderately high affinity for VIP on primary tumor cells of human colon adenocarcinoma (human); test: 125I-VIP receptor-ligand assay on cells, Scatchard (LIGAND); culture PTC-2
[32] = target: high-affinity receptor for VIP on primary tumor cells of human colon adenocarcinoma (human); test: as above
[33] = target: high-affinity receptor for bombesin on primary tumor cells of human colon adenocarcinoma (human); test: 125I-bombesin receptor-ligand assay on cells, Scatchard (LIGAND); culture PTC-4
[34] = target: high-affinity receptor for bombesin on primary tumor cells of human colon adenocarcinoma (human); test: 125I-bombesin receptor-ligand assay on cells, Scatchard (LIGAND); culture PTC-3
[35] = target: high-affinity receptor for bombesin on primary tumor cells of human colon adenocarcinoma (human); test: 125I-bombesin receptor-ligand assay on cells, Scatchard (LIGAND); culture PTC-8
[36] = target: high-affinity receptor for bombesin on primary tumor cells of human colon adenocarcinoma (human); test: 125I-bombesin receptor-ligand assay on cells, Scatchard (LIGAND); culture PTC-1
[37] = target: high-affinity receptor for bombesin on primary tumor cells of human colon adenocarcinoma (human); test: 125I-bombesin receptor-ligand assay on cells, Scatchard (LIGAND); culture PTC-7
[38] = target: high-affinity receptor for bombesin on primary tumor cells of human colon adenocarcinoma (human); test: 125I-bombesin receptor-ligand assay on cells, Scatchard (LIGAND); culture PTC-2
[39] = target: high-affinity receptor for bombesin on primary tumor cells of human colon adenocarcinoma (human); test: 125I-bombesin receptor-ligand assay on cells, Scatchard (LIGAND); culture PTC-6
[40] = target: high-affinity receptor for bombesin on primary tumor cells of human colon adenocarcinoma (human); test: 125I-bombesin receptor-ligand assay on cells, Scatchard (LIGAND); culture PTC-5
[41] = target: receptor with a moderately high affinity for Substance P on primary tumor cells of human colon adenocarcinoma (human); test: 125I-Substance P receptor-ligand assay on cells, Scatchard (LIGAND); culture PTC-5
[42] = target: receptor with a moderately high affinity for Substance P on primary tumor cells of human colon adenocarcinoma (human); test: 125I-Substance P receptor-ligand assay on cells, Scatchard (LIGAND); culture PTC-1
[43] = target: receptor with a moderately high affinity for Substance P on primary tumor cells of human colon adenocarcinoma (human); test: 125I-Substance P receptor-ligand assay on cells, Scatchard (LIGAND); culture PTC-2
[44] = target: receptor with a moderately high affinity for Substance P on primary tumor cells of human colon adenocarcinoma (human); test: 125I-Substance P receptor-ligand assay on cells, Scatchard (LIGAND); culture PTC-4
[45] = target: receptor with a moderately high affinity for Substance P on primary tumor cells of human colon adenocarcinoma (human); test: 125I-Substance P receptor-ligand assay on cells, Scatchard (LIGAND); culture PTC-3
[46] = target: receptor with a moderately high affinity for Substance P on primary tumor cells of human colon adenocarcinoma (human); test: 125I-Substance P receptor-ligand assay on cells, Scatchard (LIGAND); culture PTC-8
[47] = target: receptor with a moderately high affinity for Substance P on primary tumor cells of human colon adenocarcinoma (human); test: 125I-Substance P receptor-ligand assay on cells, Scatchard (LIGAND); culture PTC-6
[48] = target: receptor with a moderately high affinity for Substance P on primary tumor cells of human colon adenocarcinoma (human); test: 125I-Substance P receptor-ligand assay on cells, Scatchard (LIGAND); culture PTC-7

somatostatin (from UniProt P61278 103-116) (peptide)
Kd [1]: 134 nM
R(M/L) receptor number [1]: 5.09e-09 M/L
Kd [2]: 1.15 nM
R(M/L) receptor number [2]: 1.06e-10 M/L
Kd [3]: 56.4 nM
R(M/L) receptor number [3]: 2.75e-09 M/L
Kd [4]: 0.0865 nM
R(M/L) receptor number [4]: 4.66e-11 M/L
Kd [5]: 15.4 nM
R(M/L) receptor number [5]: 1.24e-09 M/L
Kd [6]: 0.378 nM
R(M/L) receptor number [6]: 5.82e-11 M/L
Kd [7]: 99.2 nM
R(M/L) receptor number [7]: 6.59e-09 M/L
Kd [8]: 0.964 nM
R(M/L) receptor number [8]: 1.74e-10 M/L
Kd [9]: 128 nM
R(M/L) receptor number [9]: 3.89e-09 M/L
Kd [10]: 1.11 nM
R(M/L) receptor number [10]: 9.81e-11 M/L
R(M/L) receptor number [11]: 1.16e-09 M/L
Kd [12]: 0.545 nM
R(M/L) receptor number [12]: 6.85e-11 M/L
Kd [13]: 63.5 nM
R(M/L) receptor number [13]: 2.24e-09 M/L
Kd [14]: 0.17 nM
R(M/L) receptor number [14]: 8.99e-11 M/L
Kd [15]: 93.7 nM
R(M/L) receptor number [15]: 4.41e-09 M/L
Kd [16]: 0.323 nM
R(M/L) receptor number [16]: 6.01e-11 M/L

vasoactive intestinal peptide (VIP) (from UniProt P01282 125-152)
Kd [17]: 8.42 µM
R(M/L) receptor number [17]: 8.49e-09 M/L
Kd [18]: 1.78 nM
R(M/L) receptor number [18]: 1.5e-10 M/L
Kd [19]: 1880 nM
R(M/L) receptor number [19]: 3.21e-08 M/L
Kd [20]: 4.41 nM
R(M/L) receptor number [20]: 1.05e-10 M/L
Kd [21]: 3.51 µM
R(M/L) receptor number [21]: 8.72e-08 M/L
Kd [22]: 19.5 nM
R(M/L) receptor number [22]: 5.29e-10 M/L
Kd [23]: 633 nM
R(M/L) receptor number [23]: 1.78e-08 M/L
Kd [24]: 1.04 nM
R(M/L) receptor number [24]: 4.83e-11 M/L
Kd [25]: 555 nM
R(M/L) receptor number [25]: 9.37e-09 M/L
Kd [26]: 1.49 nM
R(M/L) receptor number [26]: 6.12e-11 M/L
Kd [27]: 945 nM
R(M/L) receptor number [27]: 5.03e-08 M/L
Kd [28]: 11 nM
R(M/L) receptor number [28]: 2.75e-10 M/L
Kd [29]: 1510 nM
R(M/L) receptor number [29]: 2.93e-08 M/L
Kd [30]: 6.35 nM
R(M/L) receptor number [30]: 2.45e-10 M/L
Kd [31]: 423 nM
R(M/L) receptor number [31]: 1.03e-08 M/L
Kd [32]: 1.45 nM
R(M/L) receptor number [32]: 6.23e-11 M/L

bombesin (peptide)
Kd [33]: 0.568 nM
R(M/L) receptor number [33]: 2.89e-10 M/L
Kd [34]: 0.569 nM
R(M/L) receptor number [34]: 2.97e-10 M/L
Kd [35]: 0.883 nM
R(M/L) receptor number [35]: 2.85e-10 M/L
Kd [36]: 0.439 nM
R(M/L) receptor number [36]: 2.24e-10 M/L
Kd [37]: 0.67 nM
R(M/L) receptor number [37]: 2.55e-10 M/L
Kd [38]: 0.593 nM
R(M/L) receptor number [38]: 3.22e-10 M/L
Kd [39]: 0.485 nM
R(M/L) receptor number [39]: 2.24e-10 M/L
Kd [40]: 0.462 nM
R(M/L) receptor number [40]: 3.35e-10 M/L

Substance P (from UniProt P20366 58-68) (peptide)
Kd [41]: 21 nM
R(M/L) receptor number [41]: 6.2e-09 M/L
Kd [42]: 154 nM
R(M/L) receptor number [42]: 1.85e-08 M/L
Kd [43]: 172 nM
R(M/L) receptor number [43]: 1.71e-08 M/L
Kd [44]: 154 nM
R(M/L) receptor number [44]: 1.66e-08 M/L
Kd [45]: 134 nM
R(M/L) receptor number [45]: 1.49e-08 M/L
Kd [46]: 186 nM
R(M/L) receptor number [46]: 1.32e-08 M/L
Kd [47]: 234 nM
R(M/L) receptor number [47]: 2.95e-08 M/L
Kd [48]: 26.2 nM
R(M/L) receptor number [48]: 7.48e-09 M/L
